From US20200102553A1

Molecular target: membrane-tethered Cre fusion: signal peptide, flag tag, CD8 transmembrane domain, GzB cleavage site, Cre recombinase (UniProt P01732)
Assay: cell-based or functional assay

reporter inversion by released Cre, qPCR: 3 fold
Substance: Granzyme B (GzB) (from UniProt P10144 21-247) (enzyme)
